Numbering of substitutions follows the chain as printed.
T1: human CD147 protein (adsorbed to ELISA plates) (human, UniProt P35613-2 22-205, limits assumed)
T1 construct: also called human CD147 polypeptide; Basigin
T1 sequence (looked up): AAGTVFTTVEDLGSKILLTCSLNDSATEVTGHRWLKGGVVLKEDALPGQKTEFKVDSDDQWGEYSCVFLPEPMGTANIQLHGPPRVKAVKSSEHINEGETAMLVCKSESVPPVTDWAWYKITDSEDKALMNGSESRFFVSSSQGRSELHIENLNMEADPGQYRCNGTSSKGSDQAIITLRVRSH

B1: anti-human CD147 activatable antibody hu 3A11 Hc1/Lc1-419.3-3001 (antibody, V domains shown)
VH: EVQLVESGGGLVQPGGSLRLSCAASGFTFSNYWMDWVRQAPGKGLEWVGEIRLKSYNYATHYAASVKGRFTISRDDSKNSVYLQMNSLKTEDTAVYYCTAAGTDYWGQGTLVTVSS
VL: LHGPCHYDLKCKGGGSSGGSAVGLLAPPGGLSGRSDNHGGSDIQMTQSPSSLSASVGDRVTITCRASQSVRTDVGWYQQKPGKAPKLLIYYSSNRYTGVPSRFSGSGSGTDFTLTISSLQPEDFATYYCQQDYSSPYTFGQGTKLEIK
notes: also called hu 3A11-419.3-3001
B2: anti-human CD147 activatable antibody hu 3A11 Hc1/Lc1-415.1-2012 (antibody, V domains shown)
VH: B1 VH
VL: LHGPCHFNNCNTLGGGSSGGSISSGLLSGRSANPGGGSDIQMTQSPSSLSASVGDRVTITCRASQSVRTDVGWYQQKPGKAPKLLIYYSSNRYTGVPSRFSGSGSGTDFTLTISSLQPEDFATYYCQQDYSSPYTFGQGTKLEIK
notes: also called hu 3A11-415.1-2012
B3: anti-human CD147 activatable antibody hu 3A11 Hc1/Lc1-414.1-3001 (antibody, V domains shown)
VH: B1 VH
VL: THGPCHFKPNCGGGSSGGSAVGLLAPPGGLSGRSDNHGGSDIQMTQSPSSLSASVGDRVTITCRASQSVRTDVGWYQQKPGKAPKLLIYYSSNRYTGVPSRFSGSGSGTDFTLTISSLQPEDFATYYCQQDYSSPYTFGQGTKLEIK
notes: also called hu 3A11-414.1-3001
B4: anti-human CD147 activatable antibody hu 3A11 Hc1/Lc1-414.3-2012 (antibody, V domains shown)
VH: B1 VH
VL: THGPCHFKPNCAYPTGGGSSGGSISSGLLSGRSANPGGGSDIQMTQSPSSLSASVGDRVTITCRASQSVRTDVGWYQQKPGKAPKLLIYYSSNRYTGVPSRFSGSGSGTDFTLTISSLQPEDFATYYCQQDYSSPYTFGQGTKLEIK
notes: also called hu 3A11-414.3-2012
B5: anti-human CD147 activatable antibody hu 3A11 Hc1/Lc1-419.2-3001 (antibody, V domains shown)
VH: B1 VH
VL: LHGPCHYDLKCKNNGGGSSGGSAVGLLAPPGGLSGRSDNHGGSDIQMTQSPSSLSASVGDRVTITCRASQSVRTDVGWYQQKPGKAPKLLIYYSSNRYTGVPSRFSGSGSGTDFTLTISSLQPEDFATYYCQQDYSSPYTFGQGTKLEIK
notes: also called hu 3A11-419.2-3001
B6: anti-human CD147 activatable antibody hu 3A11 Hc1/Lc1-419.3-2012 (antibody, V domains shown)
VH: B1 VH
VL: LHGPCHYDLKCKGGGSSGGSISSGLLSGRSANPGGGSDIQMTQSPSSLSASVGDRVTITCRASQSVRTDVGWYQQKPGKAPKLLIYYSSNRYTGVPSRFSGSGSGTDFTLTISSLQPEDFATYYCQQDYSSPYTFGQGTKLEIK
notes: also called hu 3A11-419.3-2012
B7: anti-human CD147 activatable antibody hu 3A11 Hc1/Lc1-414.3-3001 (antibody)
VH: B1 VH
VL: THGPCHFKPNCAYPTGGGSSGGSAVGLLAPPGGLSGRSDNHGGSDIQMTQSPSSLSASVGDRVTITCRASQSVRTDVGWYQQKPGKAPKLLIYYSSNRYTGVPSRFSGSGSGTDFTLTISSLQPEDFATYYCQQDYSSPYTFGQGTKLEIK
notes: also called hu 3A11-414.3-3001
B8: anti-human CD147 activatable antibody hu 3A11 Hc1/Lc1-415-2012 (antibody, V domains shown)
VH: B1 VH
VL: B4 VL with T1L, K8N, P9N, N10C, C11N, A12T, Y13L, P14K, T15L
notes: also called hu 3A11-415-2012
B9: anti-human CD147 activatable antibody hu 3A11 Hc1/Lc1-419.1-3001 (antibody)
VH: B1 VH
VL: B7 VL with T1L, F7Y, K8D, P9L, N10K, A12K, Y13Q, P14N
notes: also called hu 3A11-419.1-3001
B10: anti-human CD147 activatable antibody hu 3A11 Hc1/Lc1-414.4-2012 (antibody, V domains shown)
VH: B1 VH
VL: B4 VL with K8R
notes: also called hu 3A11-414.4-2012
B11: anti-human CD147 activatable antibody hu 3A11 Hc1/Lc1-414.2-3001 (antibody)
VH: B1 VH
VL: B7 VL with N10Q, A12S
notes: also called hu 3A11-414.2-3001
B12: anti-human CD147 activatable antibody hu 3A11 Hc1/Lc1-414-3001 (antibody)
VH: B1 VH
VL: B7 VL with A12S
notes: also called hu 3A11-414-3001
B13: anti-human CD147 activatable antibody hu 3A11 Hc1/Lc1-217-3001 (antibody)
VH: B1 VH
VL: QSLFCSGFRCDQYASGGGSSGGSAVGLLAPPGGLSGRSDNHGGSDIQMTQSPSSLSASVGDRVTITCRASQSVRTDVGWYQQKPGKAPKLLIYYSSNRYTGVPSRFSGSGSGTDFTLTISSLQPEDFATYYCQQDYSSPYTFGQGTKLEIK
notes: also called hu 3A11-217-3001
B14: anti-human CD147 activatable antibody hu 3A11 Hc1/Lc1-440-3001 (antibody)
VH: B1 VH
VL: TCLHLTRFNYLSCNKGGGSSGGSAVGLLAPPGGLSGRSDNHGGSDIQMTQSPSSLSASVGDRVTITCRASQSVRTDVGWYQQKPGKAPKLLIYYSSNRYTGVPSRFSGSGSGTDFTLTISSLQPEDFATYYCQQDYSSPYTFGQGTKLEIK
notes: also called hu 3A11-440-3001
B15: anti-human CD147 activatable antibody hu 3A11 Hc1/Lc1-419-3001 (antibody)
VH: B1 VH
VL: B7 VL with T1L, F7Y, K8D, P9L, N10K, A12K, Y13N, P14N
notes: also called hu 3A11-419-3001
B16: anti-human CD147 activatable antibody hu 3A11 Hc1/Lc1-416-3001 (antibody)
VH: B1 VH
VL: WQRECSQKNICQYYIGGGSSGGSAVGLLAPPGGLSGRSDNHGGSDIQMTQSPSSLSASVGDRVTITCRASQSVRTDVGWYQQKPGKAPKLLIYYSSNRYTGVPSRFSGSGSGTDFTLTISSLQPEDFATYYCQQDYSSPYTFGQGTKLEIK
notes: also called hu 3A11-416-3001
B17: anti-human CD147 activatable antibody hu 3A11 Hc1/Lc1-216-3001 (antibody)
VH: B1 VH
VL: HGPCHYNFNSGCAQFGGGSSGGSAVGLLAPPGGLSGRSDNHGGSDIQMTQSPSSLSASVGDRVTITCRASQSVRTDVGWYQQKPGKAPKLLIYYSSNRYTGVPSRFSGSGSGTDFTLTISSLQPEDFATYYCQQDYSSPYTFGQGTKLEIK
notes: also called hu 3A11-216-3001
B18: anti-human CD147 activatable antibody hu 3A11 Hc1/Lc1-253-3001 (antibody)
VH: B1 VH
VL: B7 VL with T1V, F7W, K8S, P9V, N10E, A12L, Y13S, P14N, T15V
notes: also called hu 3A11-253-3001
B19: anti-human CD147 activatable antibody hu 3A11 Hc1/Lc1-428-3001 (antibody)
VH: B1 VH
VL: B7 VL with T1W, F7Y, K8T, P9K, N10C, C11D, A12D, Y13H, P14T, T15M
notes: also called hu 3A11-428-3001
B20: anti-human CD147 activatable antibody hu 3A11 Hc1/Lc1-443-3001 (antibody)
VH: B1 VH
VL: B7 VL with T1A, F7Y, K8N, P9T, N10E, A12N, Y13S, P14N, T15K
notes: also called hu 3A11-443-3001
B21: anti-human CD147 activatable antibody hu 3A11 Hc1/Lc1-215-3001 (antibody)
VH: B1 VH
VL: RYQSCHSYWCTEGNHGGGSSGGSAVGLLAPPGGLSGRSDNHGGSDIQMTQSPSSLSASVGDRVTITCRASQSVRTDVGWYQQKPGKAPKLLIYYSSNRYTGVPSRFSGSGSGTDFTLTISSLQPEDFATYYCQQDYSSPYTFGQGTKLEIK
notes: also called hu 3A11-215-3001
B22: anti-human CD147 activatable antibody hu 3A11 Hc1/Lc1-221-3001 (antibody)
VH: B1 VH
VL: B21 VL with R1D, Y2H, Q3G, S4P, S7Y, Y8V, W9S, E12T, G13I
notes: also called hu 3A11-221-3001
B23: anti-human CD147 activatable antibody hu 3A11 Hc1/Lc1-415-3001 (antibody)
VH: B1 VH
VL: B7 VL with T1L, K8N, P9N, N10C, C11N, A12T, Y13L, P14K, T15L
notes: also called hu 3A11-415-3001
B24: anti-human CD147 activatable antibody hu 3A11 Hc1/Lc1-445-3001 (antibody)
VH: B1 VH
VL: B7 VL with T1S, K8D, P9Y, N10Q, A12I, Y13N, P14N
notes: also called hu 3A11-445-3001
B25: anti-human CD147 activatable antibody hu 3A11 Hc1/Lc1-422-3001 (antibody)
VH: B1 VH
VL: B7 VL with T1L, F7Y, K8M, P9N, N10T, A12H, Y13N, P14V, T15K
notes: also called hu 3A11-422-3001
B26: humanized anti-human CD147 antibody hu 3A11 Lc2/hu 3A11 Hc2 (antibody, V domains shown)
VH: B1 VH with D35N, V81L, T99A, A100R
VL: DIQMTQSPSSLSASVGDRVTITCKASQSVRTDVAWYQQKPGKAPKLLIYYSSNRYTGVPSRFSGSGSGTDFTLTISSLQPEDFATYYCQQDYSSPFTFGQGTKLEIK
notes: also called hu 3A11 (hu Lc2/hu Hc2)
B27: humanized anti-human CD147 antibody hu 3A11 Lc4/hu 3A11 Hc2 (antibody, V domains shown)
VH: B1 VH with D35N, V81L, T99A, A100R
VL: B26 VL with A13V, S67Y, L73F, L78V
notes: also called hu 3A11 (hu Lc4/hu Hc2)

Molecular target: T1, human CD147 protein (adsorbed to ELISA …)
Assay: ELISA, human CD147 protein adsorbed to plate, intact activatable antibody; apparent KD
Method: (§1) For the exemplary assay depicted in FIGS. 7A-7C, standard ELISA protocol was used, in which human CD147 protein was absorbed to ELISA plates and subsequently incubated with the indicated concentration of antibody of the present disclosure. Bound humanized activatable antibody of the present disclosure was detected with anti-human Fab-peroxidase secondary antibody and Ultra TMB detection (Thermo Fisher Scientific).

Binder	Kd [nM]
B1	73.5
B2	4.68
B3	13.8
B4	5.92
B5	20.8
B6	10
B7	20.2
B8	1.43
B9	44
B10	6.73
B11	15.7
B12	24.7

Molecular target: T1, human CD147 protein (adsorbed to ELISA …)
Assay: as above
Remark: another data set of the same source
Method: Humanized anti-human CD147 antibodies of the present disclosure hu 3A11 Hc1/Lc1 (VL of SEQ ID NO: 5 and VH of SEQ ID NO: 1) were used as a control.
as §1, with “Using a” for “For the exemplary assay depicted in FIGS. 7A-7C,”, “protocol,” for “protocol was used, in which”

Binder	Kd [nM]
B13	1.61
B14	1.23
B15	9.43
B16	0.49
B17	0.89
B18	0.87
B19	7.63
B20	7.4
B21	5.53
B22	2.5
B23	4.72
B24	7.86
B25	1.55
B12	16

Molecular target: T1, human CD147 protein (adsorbed to ELISA …)
Assay: ELISA, human CD147 protein adsorbed to plate, anti-human Fab-peroxidase detection; apparent KD
Method: The antibodies of the present disclosure that were assayed in this exemplary study were hu 3A11 Lc1/hu 3A11 Hc1 (VL of SEQ ID NO: 5 and VH of SEQ ID NO: 1), hu 3A11 Lc2/hu 3A11 Hc2 (VL of SEQ ID NO: 6 and VH of SEQ ID NO: 2), hu 3A11 Lc4/hu 3A11 Hc2 (VL of SEQ ID NO: 8 and VH of SEQ ID NO: 2). Using a standard ELISA protocol, human CD147 protein was absorbed to ELISA plates and subsequently incubated with the indicated concentration of antibody of the present disclosure. Bound humanized antibody of the present disclosure was detected with anti-human Fab-peroxidase secondary antibody, and Ultra TMB detection (Thermo Fisher Scientific).

Binder	Kd [nM]
B26	0.726
B27	0.902
